The nanobody polyreactivity screen of Harvey et al. (2022)

assay: yeast display, Sf9 membrane polyspecificity reagent, FACS + sequencing; frameworks hold sequencing errors
How it was run: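 A synthetic nanobody library was expressed on Saccharomyces cerevisiae BJ5465 by galactose induction for 36–48 hours. The library was stained for 1 hour at 4 °C with 10% biotinylated, detergent-solubilized Sf9 membrane reagent and enriched with streptavidin microbeads before FACS. Low and high (top ~1%) gates were set on anti-HA fluorescence for expression and streptavidin fluorescence for reagent binding, and each polyreactivity label reflects the gate of origin.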

Sequence | polyreactivity (PSR sort gate)
QVQLVESGGGLVQAGGSLRLSCAASGITLSNYAMGWYRQAPVKEREFVAALTRSGDSTYYADSVKGRFTISRDNAQNTVYLQMNSLKPEDTAVYYCPAEEHRYTEVYPTSTTDEYDYRGQGTQVTVSS | low polyreactivity
QVQLVESGGGLVQAGGRLRLSCAASGSIFYGYDMGWYRQAPGKERELVAAITIGGGTTYYADSVKGRFTISRDNAKNTVYLQMNSLKPEDTAVYYCAKTYARPTRVQKYSGEGGYWGQGTQVTVSS | high polyreactivity
QVQLVESGGGLVQAGGSLRLSCAASGLTFASNALGWYRQAPWKERELVAGISRTGTTTYYADSVKGRFTISRDNAKNTVYLQMNSLKPEDTAVYYCAASKQAVKYRSQRYYYWGQGTQVTVSS | high polyreactivity
QVQLVESGGGLVQAGGSLRLSCADSGFIFVVKAMGWYRQAPGKEREIVAVISSSTGSTYYADSVKGRFTISRDNAKNTVYLQLNSLKPEDTAVYSCAAASRRRRPLKRMYYWGQGTQVTVSS | low polyreactivity
QVQLVESGGGLVQAGGSLRLRCAASGLIFARNAMGWYRHAPGKERELVAAISRRGGSTYYADSVKGRFTISRDNAKNTVYLQMNSLKPEDTAVYYCAADTPYWQSSKYDYWGQGTQVTVSS | high polyreactivity
QDQLVESWGGLVQAGGSLRLICAASGFIFRSYAMGWYRQAPGKERELVAAITYSGGRTYYADSVKGRFTISRDNAKNTVYLQMNSLKPEDTAVYYCAAETRVDFYWGQGTQVTVSS | high polyreactivity
QVQLVESRGGLVQAGGSLRLSCAASGSTFSVYAMGWYRQAPGKERELVADITRGGSTYADSVTGRFTISRDNAKNTVYLQMNSLKPEDTAVDYCARAEVTPYPLYWSTREYDYWGQGTQVTVSS | low polyreactivity
QVQLVESGGGLVQAGGSLRLSCAASGRIFHYNDMGWYRQAPWKERELVAAISTGGSTNYADSVKGRFTISRDNAKNTVYLQMNSLKPEDTAVYYCAADHPGTYPTTKFDYWGQGTQVTVSS | low polyreactivity
QVQLVESGGGIVQAGGSLRLSCAASGRIFQYYAMGWYRQAPGKERELVASISGRGGRTYYADSVKGRFTISRDNAKNTVYLQMNSLKPEDTAVYYCNAVFSTIRYIRSYNYWGQGTQVTVSS | high polyreactivity
QVQLVESGGGLVQAGGSLRLSCAASGFTIYYYAMGWYRQAPGKERELVASISWSGGSTNYADSVKGRFTISRDNAKNTVYLQMNRLKPEDTAVYYCNTAGPYRRDYWGQGTQVTVSS | high polyreactivity
QVQLVESGGGLVQAGGSLPLSCAASGRTIDHYAMGWYRQAPGKERELVAAITSGGSTYYADSVKGRFTISRDNAKNTVYLQMNSLKPEDTAVYYCNKDSSFWGYYIAQVNERDYWGQGTQVTVSS | low polyreactivity
QVQLVESGGGLVQAGGSLRLSCAASGFIFFAYAMGWYRQAPGKERELVAAISSSGTRTYYADSVKGRFTISRDNAKNTVYLQMNSLKPEDTAVYYCARYIPVYTREREYNYWGQGTQVTVSS | high polyreactivity
QVQLVESGGGLVQAGGSLRLSCAASGSIFYANAMGWYRQAPGKERELVAAIDGGSTYYADSVKGRFTISRDNAKNTVYLQMNSLKPEDTAVYYCAADYFNYRGYTYLGDYWGQGTQVTVSS | low polyreactivity
QVQLVESGGGLVQAGGSLRLSCAASGFIFARYAMGWYRQAPGKERELVAAISSGGRTYFADSVKGRFTISRDNAKNTVYLQMNSLKPEDTAVYYCAKRPTNGYGTFDYWGQGTQVTVSS | high polyreactivity
QVQLVYSGGGLVQAGGSLRLSCAASGRTSWIKAMGWYRTAPGKERQLVAAIRYSGRTYYADSVKGRFTISRDNAKNTVYLQMNSLKPEDYGVYYCAAVVGGYETGRYYYWGQGTQVTVSS | high polyreactivity
QVQLVESGGGLVQAGGSLRLSCAASGRIFSYNAMGWYRQAPGQERELVASISGRGVITYYADSVKGRFTISRDNAKNTVYLQMNSLKPEDTAVYYCNARYIYTRPRPRNYWGQGTQVTVSS | high polyreactivity
QVQLVESGGGLDQAGGSLRLSCAASGNIFVEYAMGWYSQAPGKERELVAAITNSGGRTHYADSVKGRFTISRDNAKNTGSLQMNSRKPEDTAVFYCAAPTKYRSRRYYWGQGTQVSVSS | high polyreactivity
QVQLVESGGGLVQAGGSLRLSCAASGRLFRHNAMGWYRQAPGKERELVAVISRSTGSTYYADSVKGRFTISRYNAKNTVYLQMNSLKPEDTAVYYCDAKYGSGQRYDYWGQGTQVTVSS | high polyreactivity
QVQLVESGGGLVQAGGSLRLSCAASGSTSLKNAMGWYRQAPGKERELVAAINSVGDTYYADSVKGRFTISRDNAKNTVYLQMNSLKPEDTAVYYCAKRVVRYGKRMGYWGQGTQVTVSS | high polyreactivity
QVQLVESGGGLVQAGGSLRLSCAASGRIVGINVMGWYRQAPGKERELVAAISYRTGSTYYADSVKGRFTISRDNAKNTVYLQMNSLKPEDTAVYYCDAQRRIRTAWYDYWGQGTQVTVSS | high polyreactivity
QVQLVESGGGLVQAGGSLRLRCAASGRTFELYAMGWYRQAPGKERALVAAITASGGTTYYADSVKGRFTISRDNAKNTVYLQMNSLKPEDTAVYYCAAEYSYYPFTDYDYWGQGTQVSVSS | high polyreactivity
QVQLVESGVGLVQAGGTLRLSCAASGFTFVRYAMAWYRQAPGKEREFVASISARGCNTFYADSVKGRFTISRDNAKNTVYLQMNSLKPEDTAVYYCAKRGPYGTGYGYWGQGTQVTVSS | high polyreactivity
